Results as given in patent US20230183713A1, “SITE-SPECIFIC RECOMBINASES FOR EFFICIENT AND SPECIFIC GENOME EDITING” (TECHNISCHE UNIVERSITÄt DRESDEN, published 2023).

Assays:
[1] = target: T1, Cre recombinase monomer with Q311R mutation
T1 chain: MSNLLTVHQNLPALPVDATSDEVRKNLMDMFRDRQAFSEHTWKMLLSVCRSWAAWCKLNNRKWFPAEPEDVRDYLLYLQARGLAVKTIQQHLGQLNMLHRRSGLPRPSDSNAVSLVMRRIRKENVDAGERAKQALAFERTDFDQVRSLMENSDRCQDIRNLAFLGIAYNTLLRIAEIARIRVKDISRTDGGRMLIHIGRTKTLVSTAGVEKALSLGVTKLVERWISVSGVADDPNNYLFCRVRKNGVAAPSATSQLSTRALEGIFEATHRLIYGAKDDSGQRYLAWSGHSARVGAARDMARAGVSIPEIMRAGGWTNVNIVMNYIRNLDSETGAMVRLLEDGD

[2] = target: T2, Cre recombinase monomer with R292Q mutation
T2 chain: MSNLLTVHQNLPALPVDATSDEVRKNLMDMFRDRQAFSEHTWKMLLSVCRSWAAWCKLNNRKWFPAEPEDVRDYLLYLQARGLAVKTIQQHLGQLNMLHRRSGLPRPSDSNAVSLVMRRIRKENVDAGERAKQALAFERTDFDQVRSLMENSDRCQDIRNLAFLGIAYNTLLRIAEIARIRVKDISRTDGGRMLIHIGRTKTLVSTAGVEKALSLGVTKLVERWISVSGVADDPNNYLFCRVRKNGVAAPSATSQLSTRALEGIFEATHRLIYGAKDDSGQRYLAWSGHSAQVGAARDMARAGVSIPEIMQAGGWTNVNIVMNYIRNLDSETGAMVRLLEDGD

[3] = target: T3, Cre recombinase monomer with K201P mutation
T3 chain: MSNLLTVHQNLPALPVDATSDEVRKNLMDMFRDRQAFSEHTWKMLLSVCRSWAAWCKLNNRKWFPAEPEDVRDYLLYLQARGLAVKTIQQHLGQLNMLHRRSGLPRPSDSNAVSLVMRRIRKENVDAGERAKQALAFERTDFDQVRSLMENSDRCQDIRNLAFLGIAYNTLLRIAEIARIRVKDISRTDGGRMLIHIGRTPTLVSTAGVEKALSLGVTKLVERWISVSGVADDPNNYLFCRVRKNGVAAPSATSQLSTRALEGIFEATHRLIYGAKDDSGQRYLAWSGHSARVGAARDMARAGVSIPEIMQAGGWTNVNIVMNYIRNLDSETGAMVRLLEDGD

[4] = target: T4, Cre recombinase monomer with Y324T mutation
T4 chain: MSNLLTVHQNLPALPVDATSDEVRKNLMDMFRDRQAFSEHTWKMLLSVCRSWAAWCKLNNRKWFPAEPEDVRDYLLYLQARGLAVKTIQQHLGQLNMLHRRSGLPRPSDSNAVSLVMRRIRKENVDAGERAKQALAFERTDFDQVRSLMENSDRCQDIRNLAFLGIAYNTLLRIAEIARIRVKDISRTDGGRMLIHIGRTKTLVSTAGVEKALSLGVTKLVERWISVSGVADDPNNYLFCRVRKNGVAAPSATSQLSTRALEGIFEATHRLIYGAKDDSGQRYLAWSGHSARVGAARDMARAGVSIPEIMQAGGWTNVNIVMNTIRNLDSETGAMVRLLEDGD

[5] = target: T5, Cre recombinase monomer with Y324R mutation
T5 chain: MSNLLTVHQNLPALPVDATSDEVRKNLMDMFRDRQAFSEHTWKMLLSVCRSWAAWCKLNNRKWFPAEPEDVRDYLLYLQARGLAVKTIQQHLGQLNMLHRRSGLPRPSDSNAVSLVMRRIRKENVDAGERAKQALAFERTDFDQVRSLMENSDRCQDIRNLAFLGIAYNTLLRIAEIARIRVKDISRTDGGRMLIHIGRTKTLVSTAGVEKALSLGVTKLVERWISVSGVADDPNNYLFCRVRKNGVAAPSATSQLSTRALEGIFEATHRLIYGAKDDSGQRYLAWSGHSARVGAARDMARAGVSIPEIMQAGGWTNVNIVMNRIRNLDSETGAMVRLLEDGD

[6] = target: T6, Cre recombinase monomer with Y324N mutation
T6 chain: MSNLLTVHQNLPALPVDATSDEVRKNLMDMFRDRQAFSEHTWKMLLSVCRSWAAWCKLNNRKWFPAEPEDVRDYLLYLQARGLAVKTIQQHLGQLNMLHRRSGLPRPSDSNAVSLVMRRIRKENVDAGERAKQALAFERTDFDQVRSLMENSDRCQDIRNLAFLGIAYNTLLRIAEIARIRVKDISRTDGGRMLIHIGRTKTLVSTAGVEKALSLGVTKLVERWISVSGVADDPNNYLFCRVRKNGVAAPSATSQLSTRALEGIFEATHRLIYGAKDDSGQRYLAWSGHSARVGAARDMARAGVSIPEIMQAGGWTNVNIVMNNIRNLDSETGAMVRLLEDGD

[7] = target: T7, Cre recombinase monomer with Y324S mutation
T7 chain: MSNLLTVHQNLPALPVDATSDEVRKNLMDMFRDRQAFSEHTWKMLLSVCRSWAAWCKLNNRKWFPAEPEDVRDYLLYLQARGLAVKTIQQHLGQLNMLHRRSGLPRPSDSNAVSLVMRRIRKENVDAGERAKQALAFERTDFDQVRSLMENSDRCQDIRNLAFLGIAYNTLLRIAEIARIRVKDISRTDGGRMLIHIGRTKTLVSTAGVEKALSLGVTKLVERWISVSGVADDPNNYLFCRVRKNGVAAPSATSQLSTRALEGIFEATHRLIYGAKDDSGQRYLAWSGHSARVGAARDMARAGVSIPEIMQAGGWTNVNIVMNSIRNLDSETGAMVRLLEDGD

[8] = target: T8, Cre recombinase monomer with W315N mutation
T8 chain: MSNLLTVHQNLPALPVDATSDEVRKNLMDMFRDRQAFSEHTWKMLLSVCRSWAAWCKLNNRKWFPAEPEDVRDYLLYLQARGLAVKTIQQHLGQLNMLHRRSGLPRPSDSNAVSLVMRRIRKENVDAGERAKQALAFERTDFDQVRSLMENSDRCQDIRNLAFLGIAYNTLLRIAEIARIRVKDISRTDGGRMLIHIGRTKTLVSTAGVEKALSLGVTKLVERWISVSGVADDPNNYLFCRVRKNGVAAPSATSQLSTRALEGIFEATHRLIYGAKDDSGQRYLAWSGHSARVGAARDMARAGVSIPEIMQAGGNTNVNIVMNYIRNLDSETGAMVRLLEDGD

[9] = target: T9, Cre recombinase monomer with R292A mutation
T9 chain: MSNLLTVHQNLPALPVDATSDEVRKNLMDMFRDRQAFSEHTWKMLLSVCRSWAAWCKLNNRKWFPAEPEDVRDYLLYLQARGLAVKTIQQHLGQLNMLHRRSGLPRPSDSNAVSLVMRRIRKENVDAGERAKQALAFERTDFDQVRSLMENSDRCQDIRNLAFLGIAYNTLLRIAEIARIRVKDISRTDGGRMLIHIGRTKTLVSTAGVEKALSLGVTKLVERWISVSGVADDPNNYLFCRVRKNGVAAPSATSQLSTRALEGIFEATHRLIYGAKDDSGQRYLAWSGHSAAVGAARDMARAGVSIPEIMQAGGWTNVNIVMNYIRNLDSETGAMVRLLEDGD

[10] = target: T10, Cre recombinase monomer with K201Q mutation
T10 chain: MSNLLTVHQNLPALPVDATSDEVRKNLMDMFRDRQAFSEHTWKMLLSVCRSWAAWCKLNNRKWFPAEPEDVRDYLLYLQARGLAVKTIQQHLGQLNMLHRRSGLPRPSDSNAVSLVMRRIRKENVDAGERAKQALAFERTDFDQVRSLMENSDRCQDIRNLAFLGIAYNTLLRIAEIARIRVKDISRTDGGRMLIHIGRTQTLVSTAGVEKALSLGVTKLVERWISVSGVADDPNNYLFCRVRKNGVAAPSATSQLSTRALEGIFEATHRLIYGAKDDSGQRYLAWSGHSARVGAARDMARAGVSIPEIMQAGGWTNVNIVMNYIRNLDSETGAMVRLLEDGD

B1: Cre recombinase monomer with K201C mutation (protein)
chain: MSNLLTVHQNLPALPVDATSDEVRKNLMDMFRDRQAFSEHTWKMLLSVCRSWAAWCKLNNRKWFPAEPEDVRDYLLYLQARGLAVKTIQQHLGQLNMLHRRSGLPRPSDSNAVSLVMRRIRKENVDAGERAKQALAFERTDFDQVRSLMENSDRCQDIRNLAFLGIAYNTLLRIAEIARIRVKDISRTDGGRMLIHIGRTCTLVSTAGVEKALSLGVTKLVERWISVSGVADDPNNYLFCRVRKNGVAAPSATSQLSTRALEGIFEATHRLIYGAKDDSGQRYLAWSGHSARVGAARDMARAGVSIPEIMQAGGWTNVNIVMNYIRNLDSETGAMVRLLEDGD
[1]
  Median dimer activity (recombination on loxP): 93%
[2]
  Median dimer activity (recombination on loxP): 52%

B2: Cre recombinase monomer with K201D mutation (protein)
chain: MSNLLTVHQNLPALPVDATSDEVRKNLMDMFRDRQAFSEHTWKMLLSVCRSWAAWCKLNNRKWFPAEPEDVRDYLLYLQARGLAVKTIQQHLGQLNMLHRRSGLPRPSDSNAVSLVMRRIRKENVDAGERAKQALAFERTDFDQVRSLMENSDRCQDIRNLAFLGIAYNTLLRIAEIARIRVKDISRTDGGRMLIHIGRTDTLVSTAGVEKALSLGVTKLVERWISVSGVADDPNNYLFCRVRKNGVAAPSATSQLSTRALEGIFEATHRLIYGAKDDSGQRYLAWSGHSARVGAARDMARAGVSIPEIMQAGGWTNVNIVMNYIRNLDSETGAMVRLLEDGD
[3]
  Median dimer activity (recombination on loxP): 70%

B3: Cre recombinase monomer with W315C mutation (protein)
chain: MSNLLTVHQNLPALPVDATSDEVRKNLMDMFRDRQAFSEHTWKMLLSVCRSWAAWCKLNNRKWFPAEPEDVRDYLLYLQARGLAVKTIQQHLGQLNMLHRRSGLPRPSDSNAVSLVMRRIRKENVDAGERAKQALAFERTDFDQVRSLMENSDRCQDIRNLAFLGIAYNTLLRIAEIARIRVKDISRTDGGRMLIHIGRTKTLVSTAGVEKALSLGVTKLVERWISVSGVADDPNNYLFCRVRKNGVAAPSATSQLSTRALEGIFEATHRLIYGAKDDSGQRYLAWSGHSARVGAARDMARAGVSIPEIMQAGGCTNVNIVMNYIRNLDSETGAMVRLLEDGD
[4]
  Median dimer activity (recombination on loxP): 36%
[5]
  Median dimer activity (recombination on loxP): 31%
[6]
  Median dimer activity (recombination on loxP): 38%

B4: Cre recombinase monomer with W315E mutation (protein)
chain: MSNLLTVHQNLPALPVDATSDEVRKNLMDMFRDRQAFSEHTWKMLLSVCRSWAAWCKLNNRKWFPAEPEDVRDYLLYLQARGLAVKTIQQHLGQLNMLHRRSGLPRPSDSNAVSLVMRRIRKENVDAGERAKQALAFERTDFDQVRSLMENSDRCQDIRNLAFLGIAYNTLLRIAEIARIRVKDISRTDGGRMLIHIGRTKTLVSTAGVEKALSLGVTKLVERWISVSGVADDPNNYLFCRVRKNGVAAPSATSQLSTRALEGIFEATHRLIYGAKDDSGQRYLAWSGHSARVGAARDMARAGVSIPEIMQAGGETNVNIVMNYIRNLDSETGAMVRLLEDGD
[7]
  Median dimer activity (recombination on loxP): 35%

B5: Cre recombinase monomer with Q133H mutation (protein)
chain: MSNLLTVHQNLPALPVDATSDEVRKNLMDMFRDRQAFSEHTWKMLLSVCRSWAAWCKLNNRKWFPAEPEDVRDYLLYLQARGLAVKTIQQHLGQLNMLHRRSGLPRPSDSNAVSLVMRRIRKENVDAGERAKHALAFERTDFDQVRSLMENSDRCQDIRNLAFLGIAYNTLLRIAEIARIRVKDISRTDGGRMLIHIGRTKTLVSTAGVEKALSLGVTKLVERWISVSGVADDPNNYLFCRVRKNGVAAPSATSQLSTRALEGIFEATHRLIYGAKDDSGQRYLAWSGHSARVGAARDMARAGVSIPEIMQAGGWTNVNIVMNYIRNLDSETGAMVRLLEDGD
[8]
  Median dimer activity (recombination on loxP): 33%
[1]
  Median dimer activity (recombination on loxP): 96%
[9]
  Median dimer activity (recombination on loxP): 48%

B6: Cre recombinase monomer with E176W mutation (protein)
chain: MSNLLTVHQNLPALPVDATSDEVRKNLMDMFRDRQAFSEHTWKMLLSVCRSWAAWCKLNNRKWFPAEPEDVRDYLLYLQARGLAVKTIQQHLGQLNMLHRRSGLPRPSDSNAVSLVMRRIRKENVDAGERAKQALAFERTDFDQVRSLMENSDRCQDIRNLAFLGIAYNTLLRIAWIARIRVKDISRTDGGRMLIHIGRTKTLVSTAGVEKALSLGVTKLVERWISVSGVADDPNNYLFCRVRKNGVAAPSATSQLSTRALEGIFEATHRLIYGAKDDSGQRYLAWSGHSARVGAARDMARAGVSIPEIMQAGGWTNVNIVMNYIRNLDSETGAMVRLLEDGD
[1]
  Median dimer activity (recombination on loxP): 90%
[10]
  Median dimer activity (recombination on loxP): 28%
